Assay results taken from a protein production outcome set (Wang et al. 2014).

Experiment: label from the status in PepcDB records

Row | Sequence | protein production
1 | NNDDDGTNKAQEIAGKYEGYSIGNCAMFTDYVMGEKSVATIVPNEDGTINVTYDSGSGEFKLNNIKVTSKTFEGSGQVELSMNDKPAGAKDFTLTGSIDEQQKLTLKVNVPSVMGGLTIEFIQGTLPISYHVSGTYNKEANLSVSVGSTTYPDITDCKVSIKRSSDDTVELTLKGLSNLNSSQTGRAMNLGDFTVTDVKVTSTDNSIFKIEGSINTTDTNNTPITGTLSGTVSNSETNITFTFKPGAMPIDITAMFKGKK | not failed
2 | MDKNIWTSRRRRGRSHHRSPALRQCDSSERYTSGASQSSQDSGHHDVECPSTSSSKAGESSVPDLPGFYFDPEKNRYFRLLPGHNNCNPLTKEGIQLKEMESRRLQLLQQEDKQKKKIARVGFNASSILRKNQLGFLNFSSYCRLSHELRVACMERKKVEIQSSDPSALASDRFNFILADTTSDRLFTVNDVKIGGSKYGIISLQGLKAPTFEVHMHENLYFTNRKVNSVCWASLNHLDSHILLCLMGLAETPGCATLLPASLFVSSHQGTDQPGMLCSFRIPGAWSCAWSLNVQANNCFSTGLSRRVLLTNVVTGHRQSYWTNSDVLAQQFAVKTPLLFNGCRSGEIFAIDLRSPSQAKGWKATQIFHDSAVTSVQVFKEEQYLMASDMAGKIKLWDLRATKCVRQYEGHVNEYAYLPLHMHEEEGILVAVGQDCYTRIWSLHDARLLRTIPSPCPTSKANIPSVAFSPRLGGPRGAPGLLMAVQQDLYCFPYSSSCPDGLKEGRWEPSSVSKEDIL | failed
3 | MPEKKPVTAENSVGIDLGIEKFAILSDGIAVENPRFIKRVEKRIKKLQKQISRKKKGSKNYEKQKIRIQKKYRKLRNLRDDFHDKVSTAIAKRYDTIFIEDLNVRGMQRNHHLARSITDVSFYSFKEKLKWKADRYGKNLIEIGRFDPSSKLCSRCGNIKKDLKLSDRVYSCDACGLTIDRDYNASLDIRKIGLVKVGLVPPEFTPVEIATSGLDGIYPYRQMSVGESGRSEASAEELEHHHHHH | failed
4 | VSDPLHVTFVCTGNICRSPMAEKMFAQQLRHRGLGDAVRVTSAGTGNWHVGSCADERAAGVLRAHGYPTDHRAAQVGTEHLAADLLVALDRNHARLLRQLGVEAARVRMLRSFDPRSGTHALDVEDPYYGDHSDFEEVFAVIESALPGLHDWVDERLARNGPS | not failed
5 | MSHVSDYRPCFLIPCYNHGSTIADVVASLSSFDLPVLVVDDGSNEDTKQALSALSEQGLIKLISLSENQGKGGAVMAGLHQAHQLGFTHTIQIDADGQHDLEALPKLLSASETKPDNLISGQPIYDESVPKARLYGRYATHIWVWIETLSLSIKDSMCGFRAYPVAKTVAVLNKYNIGKRMDFDIEILVRMYWEGVDIDFVPTRVIYPEGGISHFDALWDNVKISWMHTRLFFGMLPRIPSLLARKRRHTDDSNAHWSKRKEQGTILGIKTLLAVYRLFGRKAFDLILKLVMRYYHFTGKSAREASEIYLQNLQRYAAQQNIALPKQLDSYHHLLSFGRTMLDKLAAWQGDFNVDNLTIHGQHHFEEMAQKKQGVLILGSHLGNIELCRALGRRHSHVKINALVFTQHAEQFNAVMKAVNPNSELNLIQVSSMGPDTAILLQQKIEQGEWVVIVGDRTSTSKENRVVWADFLGKPAPFPQGPFMLASVLKAPVYLLFGLRDDEANTPHFNVYFEHFSDQITLPRKERQQALEHVVQQYAHRLEHHTLQAPLQWYNFFNFWTLSNQPHDKQQ | failed
6 | MMRAKVNQGINLNDYNGVWVIGEQREGKINPVTIELIGEGRKLADQLGKELAVVIAGYEVEKEVKELLHYSVDKVYYINDPLLKDFTTDGYAISIANLIERKKPEVVLVGATSIGRDIAPRIAGKVGTGLTADCTKLEIDSTDNKLLQTRPAFGGNLMATIVCPKNRPQMSTVRPGVMAKAVRNESETGILEVVTPELTEKMIRTRLVEIL | failed
7 | MAKDKTSRKAPMGSGRDALMQAFREAQRPLRLDMLLRILGLHRKEKRTLEESLEALQAEGRILRLRGGAWGLTDHMKMVTGTLQVQRTGMGFVLPEDRRRTDIYVHPTQMGEAWHGDKVVVVLLPGGRGRNPEGRIVRILERGLKEMPARVVKRMGRQGLLCRAADARIKVHFLVDVTGLEGKPQKDDILVVSPGERVEDGLWAATAVRHLGSEDDVSVQERLVKINHGVPTEFPVPVLEEAATLPPAPGGGDFADRIDLRHMEFVTIDGARARDFDDAICVEEQGKGWRLWVAIADVSHYVRPGSAMDREALERSNSYYFPQSVEPMLPEALSNGLCSLNPRVPRLAMVAEIYFFGEGSPGKCKFYPAVIESKARLTYGQVNRALLLGDEEERLVLRPVLPMLEQAEKLARVLHQRRRERGSLDFDLPEPEIAFNIYGETVDIRRKVRHFGHQIVEEFMIAANEAVARFLTEKEADFLYRVHPEPEPEKLSALFKVLAGTDIAQGLPREASAGALQTVLQKAHGSAQEFLISRLTLRTMMQARYSPEHEGHFGLASACYCHFTSPIRRYADLVVHRALKRALGGDPGPTPAGGKLVAIADQLSQHERKAMEAEREILKRLTVLLLRSRVGETLTGVISSILDFGFFVELNEVLADGMVRLSSLDDDYYAFIPERQELRGERTGRTFRLGQQVKVRLADVNVGRLEVNLELVREEGDDTPVPTRRRSAASGRDGSGRDGSGRGGRGRSRHDATPRVKASPDASPEVSADGDMPDGDRLPPWIRAATEEDDPRDTTRTRRRRDDDASSRDGGDRRRGRSRNEGARGAGNPARGKAPRDGAGGDRKKGDGRDGKDGQAGGKPAGKGQSRKGKASSHRKGQGRVKKSDE | failed
8 | MTDQSVRIIEAALRLYMKKPPHEVSIEEIAREAKVSKSLIFYHFESKQKLLEEAVMHAFRKMMEEFNPRSVEEVVDYGIGFIAERREFIEFMMYALSQVRIEELERMFGEALEKVASLFEGCRHPRETAIALMAMLDGLSIYSLYFDLGKLEKYREIAMEFVESRRVRA | not failed
9 | MQKVTLGLLVFLAGFPVLDANDLEDKNSPFYYDWHSLQVGGLICAGVLCAMGIIIVMSAKCKCKFGQKSGHHPGETPPLITPGSAQS | failed
10 | MEPNCVQFLENRTILVTGASGFLAKVLVERILRLQPNVKRLYLLVRASDKKSAEQRYDVALGINTFGAINVLNFAKKCVKPKLLLHVSTVYVCGERPGHIVEKHFAMGESLNGKNKVDINTERRLADQKSKQFKEQGCSEEETEQAMKDFGLKRARLYGWPNTYVFTKAMGEMLLGHYRETMPIVIIRPTIITSTFSDPFPGWIEGLKTVDSVIIFYGKGILKCFLVDQKTVCDIIPVDMVVNAMIAIAADHCHDSGSHTVYHVGSSNQNPVIYKQIYEMMSRYFMKSPLVGRNGMLIVPKVTRISTLARFRVYTNLRYKLPIQILGLLSVISLSQRDKFALHNRKFKMAMRLVKLYKPYVLFKGIFDDKNMETLRIKNEAKDMEKLFGTNPKCIDWEDYFMIRISLAS | failed
11 | MGYDPRISVSKWYEKWMLIYVVHSVKATTLSNYVNGFERVREYIGYMRLIEVRPTHILDMIKGLEEEGYARTTVIQSLSVVRQLFKKAYGGKMIPIDPVADIKLEHHHHHH | not failed
12 | MFENESLSFEEQTIIQAAERYVQQELANEASGHDWWHIYRVTQLAKTIAEKEQANLFLCILTALLHDIGDEKFNESEEAGLLKVQQWLEANNVSTEQTNHILSIIANMSFKGGNTGKTVTTLEGKVVQDADRLDAIGAIGIARVMAYSGNKGRLIHDPHKQPREQLTQEEYRNGEDTAIMHFYEKLLKLKEQMNTNYGRLLAEKRHQFMELYLEEFYQEWDGHRLEHHHHHH | not failed
13 | MIDEPTGLYNRLRLQEDVSLRLQRDGALTVIAADLLPLALLNTIIRTLGYPFSNDLMLEARDRIRAELPDFTLYKISPTRFGLLLPRQQQEETESVCLRLLRAFESPVVCRGIPIKANVGLGVLPLADDTLDGDQDWLRLVVSAADDARDRGVGWARYNPPLDQAQQRLEHHHHHH | not failed
14 | MQAFRAPSLATIDDVCGTRADGYDGAPLRSIPDFAVIVPMHNEEASVETLVAEIVTACQPVGQFEIVVVDDASSDRTVNAVLSLGDRYPMLRLVRHDRQGGQSAAIHSGVQAARAPVICMLDGDGQNPPDNLPALLAPLLSATATSRLGLVAGQRVGRRDTLGKRLSSRFANGLRARILKDGTRDTGCGLKAFRRDAYLALPYFDHHHRYFPALFNRDGWQVAHVDVTHRARLHGNSHYTNIGRALVGIHDLIGVVWLLRRRKRSSWAETFKTETSPLEHHHHHH | not failed
15 | MCIAIPGKMTAIVDENTATIDMGGICRDVNMALMGGAEESMIGKHFLVHVGYAISEISEEESEETMRLLKIMAGLEEIDSFE | not failed
